The values below come from article PMC4784741.

Test [1] concerns the target recombinant human cathepsin L (human).
Test [2] has as its target recombinant p41 Ii without cytoplasmic and transmembrane domain (with inhibitory p41 fragment included) (human). As to the kind of experiment: SDS-PAGE with Western blot; recombinant Ii isoforms separated by SDS-PAGE, blotted and labelled with anti-Ii (LN2) mAb; minor bands above the monomers.
The target of test [3] is recombinant p31 Ii without cytoplasmic and transmembrane domain (and no inhibitory fragment) (human). The test is described as above.

Sequence of recombinant p41 Ii without cytoplasmic and transmembrane domain (with inhibitory p41 fragment included) (domain or fragment) (P04233 73-296): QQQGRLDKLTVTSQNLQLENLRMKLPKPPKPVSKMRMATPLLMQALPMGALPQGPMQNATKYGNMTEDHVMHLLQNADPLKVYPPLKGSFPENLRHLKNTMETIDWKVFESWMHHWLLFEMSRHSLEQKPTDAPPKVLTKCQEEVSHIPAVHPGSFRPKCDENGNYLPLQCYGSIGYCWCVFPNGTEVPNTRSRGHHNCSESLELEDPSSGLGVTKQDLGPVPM

In the case of “p41 fragment of invariant chain p41 Ii (domain or fragment)”, the active site titration: degradation of Z-Phe-Arg-AMC by cathepsin L (2.5 nM) with p41 fragment 0.5 nM to 3 nM; molar ratio at which the activity is abolished (molar ratio p41 fragment/cathepsin L) in test [1] amounted to 1.

For orientation: stoichiometry N means a count of units in the complex or per binding partner. For the substance “recombinant p41 Ii without cytoplasmic and transmembrane domain (with inhibitory p41 fragment included) (domain or fragment)”, the stoichiometry N in test [2] was determined as 2.

With “recombinant p31 Ii without cytoplasmic and transmembrane domain (and no inhibitory fragment) (domain or fragment)”, in test [3], the stoichiometry N came out at 2.
